In the nanobody polyreactivity screen of Harvey et al. (2022):

Assay: yeast display, Sf9 membrane polyspecificity reagent, FACS + sequencing; frameworks hold sequencing errors
Procedure, shortened: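 Genes from sorted yeast were amplified by colony PCR, read by MiSeq 2 × 250 sequencing and filtered on CDR length. These cells carried a synthetic nanobody library in Saccharomyces cerevisiae BJ5465 and were sorted by FACS into low and high (top ~1%) gates on anti-HA and streptavidin fluorescence. Polyreactivity is labelled according to the gate of origin.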

Sequence | polyreactivity (PSR sort gate)
QVQLVESGAGLVQAGGILRLSCAASGRIIAYYAMGWYRQAPGKERELVAAINWSGGRTYYADSVKGRFTISRDNAKNTVYLQMNSLKPEDTAVYYCAARVSYGYDYWGQGTQVTVSS | high polyreactivity
QVQLVESGAGLVQAGGILRLSCAASGSTFIYNAMGWYIQAPGKERELVAAISARTGNTYYADSVKGRFTISRDNAKNTVYLQMNSLKPEDTAVYYCARRGFRRGGGPSRYYWYDYWGQGTQVTVSS | high polyreactivity
QVQLVESGAGLVQAGGRLRLSCAASGIIFYNYAMGWYRQAPGKERQFVAAISWSGGSTNYADSVKGRFTISRDNAKNTVYLQMNSLKPEDTAVYYCAAEYSGNNYNSDYWGQGTQVTVSS | low polyreactivity
QVQLVESGAGLVQAGGSLGLSCAASGFTFRTYAMGWYRQAPGKERELVADISGSGGSTYYADSVKGRFTISRYNAKNTVYLQMISLKPEDTAVYYCAGTIYNWGYERDYWGQGTQVTVSS | high polyreactivity
QVQLVESGAGLVQAGGSLRLRCAASGYTLGPYAMGWYRPAPGKERELVAAISWGGGRTYYADSVKGRFTISRDNAKNTVYLQMNSLKPEDTAVYDCAAKWSHVRDGPKYDYWGQGTQVTVSS | low polyreactivity
QVQLVESGAGLVQAGGSLRLSCAASGFIFRYYAMGWYRQAPGKERELVARITPRGGRTYYADSVKGRFTISRDNAKNTVYLQMNSLKPEDTAVYYFAAVYPVLHEFGYWGQGTQVTVSS | high polyreactivity
QVQLVESGAGLVQAGGSLRLSCAASGFIYEWYTMGWYTQAPGKERELVARISTDGSTTYADSVKGRFTISRDHAKKTVYLQMNSLKPEDTSVYYCAADVTYPGLKYIFDYWGQGTQVTVSS | low polyreactivity
QVQLVESGAGLVQAGGSLRLSCAASGGTFESYAMGWYRQAPGTERELVAAISGRGGRTYYADSVKGRFTISRDNAKNTVYLQMNSLKPEDTAVYYCRYWYYRTYYYWGQGTQVTVSS | high polyreactivity
QVQLVESGAGLVQAGGSLRLSCAASGITFYTYAMGWYRQAPGKERELVAAITSRTGSTYYADSVKGRFTISRDNAKNTVYLQMNSLKPEDTAVYYCAADRTRGRDGSDYWGQGTQVTVSS | low polyreactivity
QVQLVESGAGLVQAGGSLRLSCAASGLIFGTDAMGLYRQAPGKESELVAAITSGGRTYYADSVKGRFTISRDNAKNTVYLQLISLKPEDTAVYYCAAEGWWNDTPYDYWGQVTQVTVSS | low polyreactivity
QVQLVESGAGLVQAGGSLRLSCAASGLILGVYTMGWYRQAPGTEREFVASINYGGGSTYYADSVKGRFTISRDNAKNTVYLQMNSLKPEDTAVYYCNARSRWGGTRLYSYDYWGQGTKVTVSS | low polyreactivity
QVQLVESGAGLVQAGGSLRLSCAASGLTFEWYAMGWYRPAPGKERELVAAISWNGGSTYYADSVKGRFTISRDNAKNTVYLQMNSLKPEDTAVYYCATSSPRRYYWGQGTQVTVSS | high polyreactivity
QVQLVESGAGLVQAGGSLRLSCAASGLTFVFYAMGWYRQAPGKERELVAAISSSGGSTNYADSVKGRFTISRDNAKNTVYLQMNSLKPEDTAVYYCAAETVSWYRYYYRGQGTQVTVSS | high polyreactivity
QVQLVESGAGLVQAGGSLRLSCAASGLTIYVNAMGWYGQAPGKERELVATISGSGSTNYADSEKGRFTISRDDAKNTVYLQMNSLKPEDTAVYYCNAGWAQDPSNYWGQGTQVNVSS | low polyreactivity
QVQLVESGAGLVQAGGSLRLSCAASGRIFGYYAMGWYRQAPGQERELVATIRGGGSTNYADSVKGRFTISRDNAKNTVYLQMNSLKPEDTAVYVCAKPGAKWRGFDYWGQGTQVTLSS | low polyreactivity
QVQLVESGAGLVQAGGSLRLSCAASGRIFPDNTMGWYRQAHGKERELVAVITYSGGSTYYADSVKGRFTISRDNAKNTVYLQMNSLKPEDTAVYYCAADFGFQLKMYYWGQGTQVTVSS | low polyreactivity
QVQLVESGAGLVQAGGSLRLSCAASGRIFTFNTMGWYRQAPGKERELVAAITSSSARTYYADSVKGRFTISRYNAKNTVYLQMNSLKPEDTAVYYCATRDWVGSVRMGYWGQGTQVTVSS | high polyreactivity
QVQLVESGAGLVQAGGSLRLSCAASGRILHEYAMGWYRQAPGKERELVAAITFSGTSTYYADSVKGRFTISRDNAKNSVYLQMNSLKPEDTAVYYCAADTYGGSRDYWGQGTQVTVSS | low polyreactivity
QVQLVESGAGLVQAGGSLRLSCAASGRTFIGNAMGWYRQAPGKERELVAAISSSGGNTYYADSVKGRFTISRDNAKNTVYLQMNSLKPEDTAVYYCAVEVRTFVTYGRREYYWGQGTQVTVSS | high polyreactivity
QVQLVESGAGLVQAGGSLRLSCAASGRTFINNVMGWYRQAPGKERELVAAINSGSSTKYADSVKRRFTISRDNAKNTVYLQMNSLKPEDTAVYYCAAELWYFSEIGRMDYWGQGTIVTVSS | high polyreactivity
QVQLVESGAGLVQAGGSLRLSCAASGRTFPYYVMGWYRQAPGKERELVAAIRRTGGSTYYADSVKGRFTISRDNAKNTVYLQMNSLKPEDTAVYYCTQRHSILYEGGYDYWGQGTQVTVSS | low polyreactivity

Sequence | polyreactivity (PSR sort gate)
QVQLVESGAGLVQAGGSLRLSCAASGRTFSGYAMGWYRQAPGKERELVASITWSGGSTYYADSVKGRFTISRDNAKNTVYLQMNSLKPDDTAVYYCARDSPRGRVGFNYWGQGTQVTVSS | low polyreactivity
QVQLVESGAGLVQAGGSLRLSCAASGRTFYWYVMGWYRQAPGKERELVAAITQTGSSTYYADSVKGRFTISRDYAKNTVYLQMNSLKPEDTAVYYWAAEASSVPGYDYWGQGTQVTVSS | low polyreactivity
QVQLVESGAGLVQAGGSLRLSCAASGSAFYVYARGWYTQAPGKERELVAAIRGGGSTNYADSVKGRFTISRDNAKNTFYLQMNSLKPEDTAVYDCAARYRSPRYRPSGYSYNYWGQGTQVTVSS | high polyreactivity
QVQLVESGAGLVQAGGSLRLSCAASGSIFDHYAMGWYRQAPGKERELVAAISSSGGSTYYADSVKGRFTISRDNAKNTVYLQMNSLKPEDTAVYSCAARAGYTRYGYWGQGTQVTVSS | high polyreactivity
QVQLVESGAGLVQAGGSLRLSCAASGSIFPRYAMGWYRQAPWTERELVAAITNGGSTDYADSVKGRFTISRDNAKNTVYLQMNSLKPEDTAVYYCAADLAVGIYPEDGEYWGQGTQVTVSS | low polyreactivity
QVQLVESGAGLVQAGGSLRLSCAASGSIFTENSMGWYRQAPGKEREMVAAIRWDDGHTYYADSVKGRFTISRDNAKNTVYLQMNSLKPEDTAVYYCNADKWSSTDDWLYDYWGQGTQVTVSS | low polyreactivity
QVQLVESGAGLVQAGGSLRLSCAASGSTFYRYVMGWYRQAPGKERELVAAISGSGVRTYYADSVKGRFTISRDNAKNTVYLQMHSLKPEATAVYYCAASVRSRSQTYLRYDYWGQGTQVTVSS | high polyreactivity
QVQLVESGAGLVQAGGSLRLSCAATGSIVDWYVMGWYRQAPGKERELVAAITSTGSTYYADSVKGRFTISRDNAKNPVYLQMNSLKPEDTAVYYCATSFYVYPTYYIMDYWGQGTQVTVSS | low polyreactivity
QVQLVESGAGLVQAGGSLRLSCAPSGFIFFVNAMGWYRQAPGKERELVADITKIDGTTYYADSVKGRFTISRDNAKNTVYLQMNSLKPEDTAVYYCAAGYRQLSSVRDYDYWGQGTQVTVSS | low polyreactivity
QVQLVESGAGLVQAGGSLRLSCAPSGSIFAAYAMGWYRQAPGKESELVAAIDRGGSTDYADSVKGRFTISRDNAKNTVYLQMNTLKPEDTAVYYCAKGYDYYVRRYYYWGQGTQVTVSS | high polyreactivity
QVQLVESGAGLVQAGGSLRLTCAASARILGAYAMGWYRQAPGKERELVASISSGGRTYYADSVKGRFTISRDNAKNTVYLQMNSLKPEDTAVYYCNRDRNSGFYRRYGYWGQGSQVTVSS | high polyreactivity
QVQLVESGAGLVQAGGSLRRSCAASGGNFYYNVMGWYRQAPGKERELLAAIDTSGGNRYADSVKGRFTISRDNAKNTVYLQMNSLNPEDTAVYYSAVGAYWYFGIVSYGYDYWGQGTQVTVSS | low polyreactivity
QVQLVESGAGLVQAGGSRRLSCAASGFTFKSYAMGLYRQAAGKERELVAAINRSGGSTYYADSVKGRFTISRDYAMNTVYLQMNSLSPDDTAVYYCAAVKPPDYYYWGQGTQVTVSS | high polyreactivity
QVQLVESGAGLVQAGRSLRLSCASSGITIKRYAMGWYSQAPGKESELVAAINFGAGNTYYADSVKGRFTISRDNAKNPVYLQMNSLKPEDSAVYYCATTARHRYGEYYYWGLGTQVTVSS | high polyreactivity
QVQLVESGAGLVQARGSLRLTCAASGGTFLSYAKGWYRQAPGKERELVAGISSGGSTNYADSVKGRFTISRDNAKNTVYLQMNSLKPEDTAVYYCAADSFPSEFDYWGQGTQVTVSS | low polyreactivity
QVQLVESGEGIVQAGGSLRLSCAASGSIFGIYVMGWYRQAPGKERELVAAITFGGGSTYYADSVKGRFTISRYNAKNSVYLKMNRLKPEDTSVYYCAAKSYDEGLYRRPRDYWGQGTQVTESS | high polyreactivity
QVQLVESGEGLVQAGGSLRLSCAASGRIFAWYAMGWYRQAPGKERELVAAIDRGDNTYYADSVKGRFTISRDNAKNTGYLQMNSLKPEDTAVYYGFYYGAHEPYGYWGQGTQVTVSS | low polyreactivity
QVQLVESGGAIVQAGGSLRLSCAASGRIYYPYAMGWYRQAPGKERELVAAISSGVSTNYADSVKGRFTITRDNAKNTVYLQMNSLNPEDTAVYYCARTYFRFSSSYYKAVSHGFWGQGTQVTVSS | high polyreactivity
QVQLVESGGALLQAGGSLRLSCAASGRTFPGYGMGWYRQAPGKERELVAVITSNGGITYYADSVKGRFTISRDNAKNTVYLQMNSLKPEDTAVYYCAAYEIYYEFDSWGQGTQVTVSS | low polyreactivity
QVQLVESGGALVHAGGSLRLTCAASGYTFRYYAMRWYRQAPGKERELVARINRSGGSTYYADSVKGRFTISRDNAKNTVYLQMNSLKPEDTAVYYCNRDYGWHYSYEYWGQGTQVTVSS | high polyreactivity
